Laboratory results published in article PMC9408933, “Discovery of the Key Mutation Site Influencing the Thermostability of Thermomyces lanuginosus Lipase by Rosetta Design Programs” (International Journal of Molecular Sciences, 2022).

Substrate: CCCCCCCCCCCCCCCC(=O)Oc1ccc([N+](=O)[O-])cc1
Assay: p-nitrophenol release, Michaelis-Menten fit
Type: biochemical, Thermomyces lanuginosus
Details: 37 °C, pH 9.0, 100 mM Tris-HCl, pNPP 0.08-10.00 mM, apparent Km
Description: p-nitrophenol release, Michaelis-Menten fit on TLL (Thermomyces lanuginosus lipase)

B1: TLL (Thermomyces lanuginosus lipase) (Thermomyces lanuginosus) (protein)
chain: EVSQDLFNQFNLFAQYSAAAYCGKNNDAPAGTNITCTGNACPEVEKADATFLYSFEDSGVGDVTGFLALDNTNKLIVLSFRGSRSIENWIGNLNFDLKEINDICSGCRGHDGFTSSWRSVADTLRQKVEDAVREHPDYRVVFTGHSLGGALATVAGADLRGNGYDIDVFSYGAPRVGNRAFAEFLTVQTGGTLYRITHTNDIVPRLPPREFGYSHSSPEYWIKSGTLVPVTRNDIVKIEGIDATGGNNQPNIPDIPAHLWYFGLIGTCL
notes: N-terminal His-tag, secreted from Pichia pastoris GS115 (pPIC9K), Ni-NTA purified
  Km: 160 ± 30 µM
  Vmax: 297 µmol/min/mg
  kcat: 850 ± 11.8 s⁻¹
  kcat/Km: 5.31e+06 ± 74000 M⁻¹ s⁻¹
